The values that follow come from patent publication US20150239961A1.

The target of experiment [1] is Env on the surface of HIV-1 AE.CM235-infected cells (HIV-1 AE.CM235). Kind of experiment: cell-based or functional assay.
Experiment [2] deals with recombinant AE.A244 Δ11 gp120 (HIV-1 AE.A244). The experiment in a line: SPR (BIAcore 3000), mAb captured by anti-human Ig Fc, gp120 in flow.
The target in experiment [3] is HIV-1 AE.A244 gp120 envelope glycoprotein (HIV-1 AE.A244). Kind of experiment: blocking assay on A244 gp120, competitor sCD4.
Experiment [4] addresses HIV-1 B.JRFL gp120 Env (HIV-1 B.JRFL). The experiment in a line: blocking assay on JRFL gp120, competitor b12.
For experiment [5] the target is unchanged. Kind of experiment: blocking assay on JRFL gp120, competitor sCD4.
For experiment [6], the target named is Env on the surface of HIV-1 AE.92TH023-infected primary CD4+ T cells (HIV-1 AE.92TH023). Kind of experiment: flow cytometry, Alexa Fluor 488-CH58 with CH90 F(ab), HIV-1-infected CD4+ T cells (FIG. 14B-E). In general terms: A flow cytometer gives signals particle by particle.
The target of experiment [7] is Env on the surface of HIV-1 AE.CM235-infected cells (HIV-1 AE.CM235). The experiment is described as above.
The target of experiment [8] is recombinant AE.A244 Δ11 gp120 (HIV-1 AE.A244). Kind of experiment: SPR synergy assay (BIAcore 4000), CH58 immobilized on CM5 chip, mAb-gp120 complex injected. Background: In SPR one partner is held on a chip, and binding of the other changes the refractive index at the surface.
For experiment [9], the target named is Env on the surface of HIV-1 AE.CM235-infected cells (HIV-1 AE.CM235). Kind of experiment: flow cytometry, Alexa Fluor 488-CH58 with unconjugated mAb, 10 µg/ml each, AE.CM235-infected CD4+ T cells.
The target of experiment [10] is Env on the surface of HIV-1 AE.92TH023-infected primary CD4+ T cells (HIV-1 AE.92TH023). The experiment in a line: flow cytometry, Alexa Fluor 488-CH58 with unconjugated mAb, 10 µg/ml each, AE.92TH023-infected CD4+ T cells.

Where only a bound is given, the exact number is not on record here.

Usually Kd stands for the concentration at which binding is half-saturated. By koff is commonly meant the first-order rate constant of dissociation. One may read the kon as a measure of how fast the partners come together. In [1], A32 (antibody) displayed an ADCC EC (3 hr Luciferase ADCC) of 0.003 µg/mL and a maximum % GzB activity (ADCC-CM235 assay) of 16%. In [2], the Kd worked out at 0.7 nM, the koff was found to be 0.00015 s⁻¹ and the kon was 223000 M⁻¹ s⁻¹. Besides, in [3], the % blocking of sCD4 binding turned out to be 29%. Moreover, the % blocking of b12 binding in experiment [4] worked out at 23%.

Regarding A32 Fab, in experiment [1], the inhibition of the ADCC activity mediated by 19/20 non-V3 mAbs (ADCC-CM235 assay) lay within 73 to 100%.

Consider VRC-CH31 (antibody), for which the % blocking of sCD4 binding in experiment [5] stood at 67%; in [3], 97%. Further, the % blocking of b12 binding in [4] is 70%.

CH58 (antibody): in experiment [1], the % Max Killing, mAb alone (Luciferase ADCC) was 18.8%; the ADCC EC (3 hr Luciferase ADCC) came to 9.68 µg/mL; the EC, mAb alone (Luciferase ADCC) was determined as 9.13 µg/mL; the PC75, mAb alone (Luciferase ADCC) is 31.4 µg/mL. In experiment [2], the Kd is 1 nM, the koff is 0.00023 s⁻¹ and the kon amounted to 226000 M⁻¹ s⁻¹. Besides, the % enhancement of CH58 binding in the presence of CH90 F(ab) in experiment [6] was < 10%. Moreover, the % enhancement of CH58 binding in the presence of CH90 F(ab) in [7] is < 10%. In experiment [8], the % increase in binding with gp120 pre-incubated with CH54, against gp120 with murine 16H3 mAb is 14%; the % increase in binding with gp120 pre-incubated with CH57, against gp120 with murine 16H3 mAb turned out to be 59%; the % increase in binding with gp120 pre-incubated with CH90, against gp120 with murine 16H3 mAb came out at 12%. In experiment [9], the % increase in frequency of infected cells recognized by CH58 and in MFI in the presence of A32 was < 45%; the % increase of CH58 binding in the presence of CH54 was > 20%; the % increase of CH58 binding in the presence of CH57 was > 25%; the % increase of CH58 binding in the presence of CH90 was > 35%. In [10], the % increase in the frequency of cells recognized by CH58 in the presence of A32, against CH58 alone was > 40%; the % increase in the frequency of cells recognized by CH58 in the presence of CH57, against CH58 alone was > 40%; the % increase in the frequency of cells recognized by CH58 in the presence of CH90, against CH58 alone was > 40%.
